According to the supplement of paper PMC12042874:
± gives the uncertainty stated by the source.

Assay: amyloid nucleation score (Sup35N fusion, yeast selection) (log enrichment); library NNK2; higher = more nucleation; inactive = no reads after selection
Outline: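 Peptides of 20 random codons, each fused to Sup35N, were expressed in psi-negative yeast. Cells were induced with 100 μM copper sulfate for 24 hours and grown 7 days at 30°C on medium lacking adenine and uracil, and plasmid inserts before and after selection were Illumina-sequenced. Nucleation scores are DiMSum log enrichments of output over input reads, centred on the mode score of non-aggregating sequences, and sequences under 100 input reads were excluded.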

In order of falling amyloid nucleation score:
1. RNYRLRMDGDCGLFFCCGD  9.348 ± 0.051
2. CVCDLCVPWVLNFGR  8.914 ± 0.051
3. VLSCCIPKKNSYWTVTDQPC  8.266 ± 0.033
4. YTLFPAVLECDQVLYVSVNF  6.491 ± 0.037
5. RRTICCCSIVCGRGNGSLDL  6.257 ± 0.056
6. AALNDNTSL  5.71 ± 0.079
7. LCGAILIIVHYYG  5.446 ± 0.047
8. LGHAISAHVMIIICWKDVFL  5.08 ± 0.077
9. HSICSSRNTVIFMSENFRNR  4.99 ± 0.057
10. RIVRQSVYQELFYFGQRGSL  4.19 ± 0.072
11. MYNRG  3.87 ± 0.11
12. VSCYACREFMRLIVISGCLC  3.69 ± 0.042
13. EYYLSVYSYYCYCLTCMFVI  3.46 ± 0.15
14. SNLFGKLYVCFERDPRRKMM  3.32 ± 0.12
15. IFLCFGYYNLEVLCFDTRCQ  3.1 ± 0.064
16. MSRIRTTTMNSGFGGYTPVL  3.06 ± 0.056
17. PVKPDSVGVRSIMGIVFGYR  2.94 ± 0.051
18. AWGRARNVRFYFVLRGESGL  2.79 ± 0.12
19. PRSSAVYIRTLRVSQKVDPM  2.64 ± 0.11
20. NGQYDDTG  2.32 ± 0.14
21. YSLRLDVYYRGWADYPGLWT  1.73 ± 0.18
22. MEKVHV  1.65 ± 0.48
23. IKIIPPLKLLCVLGWHSRGA  1.35 ± 0.19
24. TRYTRGSALCTLDGKIYMMK  1.29 ± 0.4
25. RWVRA  1.18 ± 0.21
26. CWQVYLIFMGRMVCLTVML  1.15 ± 0.66
27. DRGYVTD  1.14 ± 0.4
28. SGTGKVCVVLVHKTSVQRKC  1.14 ± 0.3
29. SSDTIQYYSKQNMVRRENC  1.09 ± 0.52
30. LWCPVHRAYGYAIHSVKGAH  1.04 ± 0.34
31. RHYLLFGWIVSPKVELFSPS  0.895 ± 0.81
32. VLSSRSEDTGQACEVIICVV  0.693 ± 0.34
33. PWALTFNHCKIDDTKRGHIV  0.64 ± 0.8
34. NSRLMMCEIPERCM  0.512 ± 0.28
35. AYDRIY  0.367 ± 0.74
36. LYSTRRCHVRELVPLLGARS  0.362 ± 0.25
37. WKKSMKIVNKYAVSLPDVGR  0.29 ± 0.51
38. RSLDEPSFFIPMPMYWVLGV  0.271 ± 0.65
39. KRNDCLFGRVALCGMFRLSA  0.198 ± 0.5
40. PLTNSNRPGMKHLSSKQSSV  0.138 ± 0.41
41. PSHFVGFCAHSYDVGVFMWV  0.077 ± 0.42
42. QRDHWNAALCKVLLLSGLLR  0.057 ± 0.33
43. IRQPSVKQPWTVAKTFH  0.052 ± 0.5
44. YFWLVFLKKHRQGLEGKGGW  0.004 ± 0.62
45. ATFFM  -0.011 ± 1.1
46. CMFKQYYYCARAYSVSWTVM  -0.013 ± 0.56
47. CNYMSVWN  -0.021 ± 0.74
48. MVAYFPMSPG  -0.076 ± 0.24
49. SYTWFSYIWYSLVFLRD  -0.088 ± 0.8
50. KNFQEHYVFLRARRLKLLSY  -0.095 ± 0.8
51. CRHYKFV  -0.097 ± 1.1
52. EFFALMDARVFVSVMLQEVD  -0.268 ± 0.63
53. SVGGR  -0.288 ± 0.8
54. RRICTGFIRLVGYVYYAAHL  -0.29 ± 0.24
55. RSDCCRDQYT  -0.311 ± 1.1
56. LVYTPCLILGDELAVTGVKR  -0.337 ± 0.23
57. ILSDKCLIGIGCSISSDTAG  -0.352 ± 0.38
58. MVSYKVLEYYVSLITTHLLF  -0.36 ± 0.49
59. VYIYSGFVVSWLRFFGVMRP  -0.394 ± 1.1
60. MNVYMGFTKVLSAVPRLLYG  -0.408 ± 0.56
61. NFIVW  -0.417 ± 0.64
62. YGESVHTR  -0.446 ± 0.38
63. ILDSGVRYVFMRWLIGYCND  -0.513 ± 0.33
64. GFDYLIFLNKHRLVMSWSFE  -0.675 ± 1.1
65. KYHRI  -0.721 ± 0.74
66. GSRHRDLYLGLRLYYTDVEV  -0.763 ± 0.36
67. VDVNVHIAGIWLWFYLWRYV  -0.768 ± 1.1
68. GFYYRRSMESGNTFSGCSTA  -0.776 ± 0.62
69. CVKVNWVSV  -0.81 ± 0.76
70. TGNVCQDEVNAIGRFP  -0.864 ± 0.38
71. QSVYMFRKNNDFPRGTAGSQ  -0.883 ± 1.1
72. ISPTKSNLYMADVEFREPGT  -0.883 ± 0.49
73. DKSFVSLSRFHSGRLEIRVM  -0.886 ± 0.49
74. SVNWEDKDLGVGSNLEIASL  -0.889 ± 1
75. MTVNSLFHRLNKLRGILPDR  -0.902 ± 0.48
76. VWNYISLNEAM  -0.946 ± 0.55
77. SYFHRWRATNFRTHKEAC  -1.02 ± 0.34
78. SFNWNC  -1.15 ± 0.76
79. TMWYIGKITRPSLRAGSGFT  -1.16 ± 0.48
80. HIFCRLRLAGNRLRSCLCNF  -1.16 ± 1.1
81. FQGEGISTAF  -1.32 ± 0.5

For VDLCDFCKLVASMVEDGSRE, the amyloid nucleation score was “inactive”.
In the case of WVDNRWEVSLSWAGYTIF, the amyloid nucleation score is reported as “inactive”.
With SRKFFPVFN the amyloid nucleation score was “inactive”.
For GILWRGVLVRYVCPVVSTSI, the amyloid nucleation score was “inactive”.
In the case of LFNGTMY, the amyloid nucleation score is reported as “inactive”.
